Target: T1, purified Flag-PREX2 protein (UniProt Q70Z35 1-1606)
T1 construct: PREX2, full length (183 kD); it may be the same construct; also called purified PREX2 protein; purified full-length PREX2; source: recombinant, purified (as described in Supplementary materials and methods)
Test: pull-down; 25 µL AHCYL1-binding glutathione magnetic beads with 250 ng purified Flag-PREX2, on ice 1 h; washed with 50 mM Tris-HCl pH 7.4, 300 mM NaCl, 0.5% NP40; detected by Flag antibody
Settings: both partners purified

T1 sequence (Q70Z35 whole entry): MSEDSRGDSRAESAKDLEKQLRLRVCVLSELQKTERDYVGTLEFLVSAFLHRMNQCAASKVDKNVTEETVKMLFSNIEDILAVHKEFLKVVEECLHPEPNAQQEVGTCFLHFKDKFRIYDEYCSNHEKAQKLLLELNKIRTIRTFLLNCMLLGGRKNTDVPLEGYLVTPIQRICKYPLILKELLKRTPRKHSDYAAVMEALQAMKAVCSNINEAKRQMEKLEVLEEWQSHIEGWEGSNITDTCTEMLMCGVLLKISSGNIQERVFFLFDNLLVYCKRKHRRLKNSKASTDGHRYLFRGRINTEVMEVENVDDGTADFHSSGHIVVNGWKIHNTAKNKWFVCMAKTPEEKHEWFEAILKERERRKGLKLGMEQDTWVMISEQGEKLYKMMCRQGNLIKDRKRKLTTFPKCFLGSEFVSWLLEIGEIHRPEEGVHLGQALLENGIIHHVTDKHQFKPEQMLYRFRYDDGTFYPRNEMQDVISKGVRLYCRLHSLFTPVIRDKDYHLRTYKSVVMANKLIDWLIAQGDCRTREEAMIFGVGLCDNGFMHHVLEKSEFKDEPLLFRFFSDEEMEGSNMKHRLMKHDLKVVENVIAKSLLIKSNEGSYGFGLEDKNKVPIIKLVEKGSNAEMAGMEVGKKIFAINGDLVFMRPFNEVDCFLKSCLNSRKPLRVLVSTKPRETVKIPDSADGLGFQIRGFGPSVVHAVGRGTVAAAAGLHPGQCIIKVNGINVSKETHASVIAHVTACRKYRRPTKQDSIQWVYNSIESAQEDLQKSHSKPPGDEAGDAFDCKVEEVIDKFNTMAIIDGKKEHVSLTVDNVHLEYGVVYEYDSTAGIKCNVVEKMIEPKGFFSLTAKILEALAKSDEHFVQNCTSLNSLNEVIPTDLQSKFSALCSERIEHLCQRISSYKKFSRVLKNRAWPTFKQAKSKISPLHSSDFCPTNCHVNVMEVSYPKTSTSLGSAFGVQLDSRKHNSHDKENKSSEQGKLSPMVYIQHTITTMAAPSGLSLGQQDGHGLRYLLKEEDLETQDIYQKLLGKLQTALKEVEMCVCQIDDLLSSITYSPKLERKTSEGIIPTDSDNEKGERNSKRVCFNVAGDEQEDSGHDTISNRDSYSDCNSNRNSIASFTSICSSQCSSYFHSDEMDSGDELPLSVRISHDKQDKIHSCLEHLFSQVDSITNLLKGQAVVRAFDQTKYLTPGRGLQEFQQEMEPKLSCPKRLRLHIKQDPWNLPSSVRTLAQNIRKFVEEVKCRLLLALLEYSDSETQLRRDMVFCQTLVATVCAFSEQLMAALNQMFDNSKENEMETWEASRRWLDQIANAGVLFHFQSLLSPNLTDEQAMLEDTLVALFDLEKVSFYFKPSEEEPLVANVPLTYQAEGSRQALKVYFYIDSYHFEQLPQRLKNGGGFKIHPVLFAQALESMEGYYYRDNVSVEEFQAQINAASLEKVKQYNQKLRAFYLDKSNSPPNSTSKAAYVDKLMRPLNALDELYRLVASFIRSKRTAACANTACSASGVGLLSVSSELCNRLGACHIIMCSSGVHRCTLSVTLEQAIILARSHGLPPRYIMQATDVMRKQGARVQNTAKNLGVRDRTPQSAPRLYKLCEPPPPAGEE

B1: GST-AHCYL1 recombinant protein (natural protein, UniProt O43865 1-530, looked up)
chain: MSMPDAMPLPGVGEELKQAKEIEDAEKYSFMATVTKAPKKQIQFADDMQEFTKFPTKTGRRSLSRSISQSSTDSYSSAASYTDSSDDEVSPREKQQTNSKGSSNFCVKNIKQAEFGRREIEIAEQDMSALISLRKRAQGEKPLAGAKIVGCTHITAQTAVLIETLCALGAQCRWSACNIYSTQNEVAAALAEAGVAVFAWKGESEDDFWWCIDRCVNMDGWQANMILDDGGDLTHWVYKKYPNVFKKIRGIVEESVTGVHRLYQLSKAGKLCVPAMNVNDSVTKQKFDNLYCCRESILDGLKRTTDVMFGGKQVVVCGYGEVGKGCCAALKALGAIVYITEIDPICALQACMDGFRVVKLNEVIRQVDVVITCTGNKNVVTREHLDRMKNSCIVCNMGHSNTEIDVTSLRTPELTWERVRSQVDHVIWPDGKRVVLLAEGRLLNLSCSTVPTFVLSITATTQALALIELYNAPEGRYKQDVYLLPKKMDEYVASLHLPSFDAHLTELTDDQAKYLGLNKNGPFKPNYYRY
notes: AHCYL1 (IRBIT); Construct details are in the supplementary materials and methods; also called AHCYL1 conjugated-GST beads; source: recombinant, purified (as described in Supplementary materials and methods)
B1: binds.

— paper PMC12068309, “AHCYL1 mediates the tumor-promoting effect of PREX2 in non-small cell lung carcinoma” (Theranostics, 2025)
